Literature values in paper PMC3100173.

Target: OmpF (Escherichia coli) (UniProt P02931)
Chain of UniProt P02931 (P02931 23-362): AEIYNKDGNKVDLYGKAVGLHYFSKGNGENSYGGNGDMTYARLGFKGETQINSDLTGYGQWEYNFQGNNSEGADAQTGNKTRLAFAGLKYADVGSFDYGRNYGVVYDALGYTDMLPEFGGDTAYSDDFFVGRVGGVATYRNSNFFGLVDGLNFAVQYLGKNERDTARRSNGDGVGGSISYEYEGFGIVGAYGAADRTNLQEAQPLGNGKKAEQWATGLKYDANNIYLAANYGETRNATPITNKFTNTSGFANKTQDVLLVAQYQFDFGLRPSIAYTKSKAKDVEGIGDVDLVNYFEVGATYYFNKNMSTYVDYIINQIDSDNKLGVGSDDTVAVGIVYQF

Question: With Colicin N (from UniProt P08083) as the substance, how does the Kd read?
Answer: 200 µM
